Data from article PMC2855162 (Molecular cell, 2010).

B2: His-TRAF2 (domain or fragment, human)
chain: SELLQRCESLEKKTATFENIVCVLNREVERVAMTAEACSRQHRLDQDKIEALSSKVQQLERSIGL

What was measured:
His-Smt3-TRAF1 (human) = target: T1, His-Smt3-TRAF1 (human); assay: SEC-MALS
T1 sequence (Q13077 whole entry, looked up): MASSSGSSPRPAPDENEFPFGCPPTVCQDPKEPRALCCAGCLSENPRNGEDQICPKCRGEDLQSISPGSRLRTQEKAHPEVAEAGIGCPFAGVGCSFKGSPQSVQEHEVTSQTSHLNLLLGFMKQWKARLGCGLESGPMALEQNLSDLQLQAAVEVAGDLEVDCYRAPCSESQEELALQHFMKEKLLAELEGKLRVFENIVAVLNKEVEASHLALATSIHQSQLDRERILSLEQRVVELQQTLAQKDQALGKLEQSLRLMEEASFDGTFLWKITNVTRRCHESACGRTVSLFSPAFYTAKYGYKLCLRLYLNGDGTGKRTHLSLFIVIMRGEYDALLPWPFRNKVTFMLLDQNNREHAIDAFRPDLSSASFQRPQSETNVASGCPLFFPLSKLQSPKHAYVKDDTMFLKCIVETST

[1] = target: T2, TRAF2 construct containing residues 266-329 (human, UniProt Q12933 266-329); assay: SEC-MALS
T2 sequence (looked up): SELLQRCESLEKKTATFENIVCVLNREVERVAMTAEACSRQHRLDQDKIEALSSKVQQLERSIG

SEC-MALS = target: the molecule itself; assay: SEC-MALS
His-TRAF2 = target: B2; assay: pull-down

## His-Smt3-TRAF1 (domain or fragment)
His-Smt3-TRAF1 (human)
  stoichiometry N: 3

B1: cIAP2 BIR1 domain (residues 26-99), non-tagged (domain or fragment, human, UniProt Q13489 26-99, looked up)
chain: LSCELYRMSTYSTFPAGVPVSERSLARAGFYYTGVNDKVKCFCCGLMLDNWKRGDSPTEKHKKLYPSCRFVQSL
[1]
  stoichiometry N: 3 TRAF2 molecules per cIAP2 BIR1 molecule

## B2
His-Smt3-TRAF1 (human)
  stoichiometry N (TRAF2 per TRAF1): 2
SEC-MALS
  stoichiometry N: 3

B3: untagged TRAF1 (co-expressed with His-tagged TRAF2 and cIAP2) (domain or fragment, human)
chain: FMKEKLLAELEGKLRVFENIVAVLNKEVEASHLALATSIHQSQLDRERILSLEQRVVELQQTLA
His-TRAF2
  stoichiometry N: ~2 TRAF2 per TRAF1
